# According to publication PMC5839545 (2018):
# B1: Spc24 (protein)
# chain: MAAFRDIEEVSQGLLSLLGANRAEAQQRRLLGRHEQVVERLLETQDGAEKQLREILTMEKEVAQSLLNAKEQVHQGGVELQQLEAGLQEAGEEDTRLKASLLQLTRELEELKEIEADLERQEKEVDEDTTVTIPSAVYVAQLYHQVSKIEWDYECEPGMVKGIHHGPSVAQPIHLDSTQLSRKFISDYLWSLVDTEW
# Biological target: CENP-T (Homo sapiens, UniProt Q96BT3)
# Assay: SW-FCCS
# Chain of CENP-T (Q96BT3 whole entry): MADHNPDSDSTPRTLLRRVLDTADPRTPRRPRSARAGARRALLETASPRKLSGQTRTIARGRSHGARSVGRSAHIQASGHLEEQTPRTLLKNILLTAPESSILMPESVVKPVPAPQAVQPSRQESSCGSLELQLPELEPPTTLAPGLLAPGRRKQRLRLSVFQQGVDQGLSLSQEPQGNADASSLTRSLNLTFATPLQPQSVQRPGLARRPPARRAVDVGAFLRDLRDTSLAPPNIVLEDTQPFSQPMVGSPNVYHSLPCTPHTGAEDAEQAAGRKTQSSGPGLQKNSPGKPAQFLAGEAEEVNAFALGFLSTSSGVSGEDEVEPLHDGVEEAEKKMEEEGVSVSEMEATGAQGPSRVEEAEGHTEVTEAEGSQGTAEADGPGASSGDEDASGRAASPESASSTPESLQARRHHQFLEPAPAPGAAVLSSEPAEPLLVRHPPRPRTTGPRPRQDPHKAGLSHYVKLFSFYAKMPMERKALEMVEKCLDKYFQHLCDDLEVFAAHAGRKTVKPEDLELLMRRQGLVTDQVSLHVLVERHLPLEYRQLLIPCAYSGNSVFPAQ
binder,measurement,value
B1,Kd,1.8 µM
